These results are taken from article PMC10952772 (The Febs Journal, 2022).

B2: Human Scribble (SCRIB) PDZ2 domain (860-950) (domain or fragment)
chain: RHVACLARSERGLGFSIAGGKGSTPYRAGDAGIFVSRIAEGGAAHRAGTLQVGDRVLSINGVDVTEARHDHAVSLLTAASPTIALLLEREA

The test system of data set [1] is PDZ. Conditions: phosphorylated at the −2 position; ref [51], [52]; cited from earlier work.
Data set [2] concerns the target T1, Human Scribble (SCRIB) PDZ1 domain (728-815) (human, UniProt Q14160 728-815). Nature of the data set: ITC. (In general: ITC needs no label: the signal is the heat of the interaction.)
Data set [3] concerns the target B2. Nature of the data set: ITC.
For data set [4], the target named is T2, Human Scribble (SCRIB) PDZ3 domain (1002-1094) (human, UniProt Q14160 1002-1094).
T2 sequence: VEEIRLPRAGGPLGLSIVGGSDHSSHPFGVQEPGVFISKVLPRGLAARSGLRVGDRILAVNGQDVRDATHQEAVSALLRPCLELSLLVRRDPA
Kind of data set: ITC.

In data set [5] the target is T3, Human Scribble (SCRIB) PDZ4 domain (1099-1203) (human, UniProt Q14160 1099-1203).
T3 sequence: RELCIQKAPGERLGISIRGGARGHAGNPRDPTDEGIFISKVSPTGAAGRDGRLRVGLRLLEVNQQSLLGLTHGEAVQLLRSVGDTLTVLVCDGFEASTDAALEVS
Kind of data set: ITC.

Data set [6] concerns the molecule itself. Nature of the data set: AUC.
For data set [7], the target named is T1, Human Scribble (SCRIB) PDZ1 domain …. Nature of the data set: ITC. This is another data set of the same source.
Data set [8] addresses B2. Nature of the data set: ITC. This is another data set of the same source.
The target of data set [9] is T2, Human Scribble (SCRIB) PDZ3 domain …. Kind of data set: ITC. This is another data set of the same source.
For data set [10], the target named is T3, Human Scribble (SCRIB) PDZ4 domain …. Kind of data set: ITC. This is another data set of the same source.

In general, Kd refers to the constant that tells how readily two partners part at equilibrium. The term stoichiometry N denotes the number of molecules, sites or subunits per partner or assembly.

Read-outs that look alike come from different tables or passages of the source.

T1 sequence (Q14160 728-815): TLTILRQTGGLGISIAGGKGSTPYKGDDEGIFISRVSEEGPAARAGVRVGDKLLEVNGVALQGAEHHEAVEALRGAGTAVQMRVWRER

Take “HTLV‐1 Tax1: oncogenic Tax1 protein of HTLV‐1”: in [1], the “effect of phosphorylation at the −2 position of PBM on PDZ recognition” value is given as “phosphorylation inhibiting PDZ recognition”.

B1: HTLV-1 Tax1 PBM peptide (KHFRETEV, residues 346-353) (peptide)
peptide: KHFRETEV
Take B1: the Kd in [2] turned out to be 7.8 µM; in data set [3], 15.4 µM; in data set [4] it was 9.1 µM; in [5] it was 40.2 µM. Besides, the dH in data set [2] is -4.21 kcal/mol; in data set [3], -4.08 kcal/mol; in data set [4], -13.3 kcal/mol; in data set [5], -2.17 kcal/mol. Also, the “stoichiometry N” value in [2] came out at 1.1; in data set [3], 1.1; in data set [4], 0.9; in data set [5], 1.

Regarding B2, the “stoichiometry N” value in [6] was found to be 2.

B3: Superpeptide (RSWFETWV) (peptide)
peptide: RSWFETWV
Take B3: the dissociation constant Kd in data set [7] is 0.6 µM; in data set [8], 2.2 µM; in data set [9], 1.6 µM; in [10] it was 12.6 µM. Further, the dH in data set [7] was -3.72 kcal/mol; in data set [8], -7.04 kcal/mol; in [9], -11.3 kcal/mol; in [10], -2.9 kcal/mol. The “stoichiometry N” value in data set [7] turned out to be 0.9; in data set [8], 1; in data set [9] it was 0.9; in data set [10], 1.1.
